Laboratory results as given in the supplement of paper PMC10126150.
± gives the standard deviation of the averaged measurements.

tested on: ATP; experiment: switch fluorescence ratio, 500 uM ATP over buffer (Cy3 cluster intensity, sum of 5 cycles each) (fold (ratio)); higher = stronger signal-on switching upon ATP binding; sequences stand for … in TCGTCGGCAGCGTCAGATGTGTATAAGAGACAGTTTTTTTTTTTTTTTTTTTTTTTTT…TC; settings: aptamer strand: ATP DNA aptamer (quencher-CACCTGGGGGAGTATTGCGGAGGAAGG + anchor), 100 nM annealed; ATP concentration: 500 uM
Summary of the method: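 Cy3-labelled switching-strand clusters on a modified Illumina MiSeq flow-cell were annealed to 100 nM quencher-labelled ATP aptamer, imaged in selection buffer, then imaged after 15 min with 500 uM ATP at 22 °C. Five buffer/ATP cycles ran, with NaOH stripping and re-annealing between them. The fluorescence ratio is summed target-cycle over summed buffer-cycle Cy3 intensity per cluster, averaged per switch-domain sequence. Clusters outside 100-1000 RFU were excluded.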
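Note: ATP exposure 15 min at 22 °C before imaging.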

Question: How did the switch fluorescence ratio turn out when GAGGGGCAGT was run?
Answer: 0.975 ± 0.02

Question: How did the switch fluorescence ratio turn out when AGCTTACTGT was run?
Answer: 1.08 ± 0.019

Question: Which switch fluorescence ratio does the source give for GATTGAATAA here?
Answer: 0.997 ± 0.019

Question: For GTATTTTTTG, which switch fluorescence ratio is on record?
Answer: 0.9958 ± 0.0069

Question: How did the switch fluorescence ratio turn out when AATGTTGAAG was run?
Answer: 0.987 ± 0.034

Question: With TAGTTATGGT as the sequence, how does the switch fluorescence ratio read?
Answer: 1.04 ± 0.019

Question: Which switch fluorescence ratio does the source give for GAGTTGGGCT here?
Answer: 0.979 ± 0.012

Question: Which switch fluorescence ratio does the source give for GGAAGGGAAA here?
Answer: 0.981 ± 0.029

Question: With TCCAGGAGGG as the sequence, how does the switch fluorescence ratio read?
Answer: 1.025 ± 0.0075

Question: Which switch fluorescence ratio does the source give for TTGGGAGAAA here?
Answer: 0.9804 ± 0.0092

Question: For TAACAATTGT, which switch fluorescence ratio is on record?
Answer: 1.12 ± 0.18

Question: Which switch fluorescence ratio does the source give for ACCGTTTTGT here?
Answer: 1.02 ± 0.019

Question: Which switch fluorescence ratio does the source give for ATCATCTTCG here?
Answer: 1.02 ± 0.015

Question: For GGTGGGCGGG, which switch fluorescence ratio is on record?
Answer: 1.01 ± 0.016

Question: For ATAGGGGCTC, which switch fluorescence ratio is on record?
Answer: 0.988 ± 0.021

Question: How did the switch fluorescence ratio turn out when TTTACGGCGT was run?
Answer: 0.994 ± 0.017

Question: GAGGCATGGG was tested. Which switch fluorescence ratio did it give?
Answer: 1.027 ± 0.0065

Question: Which switch fluorescence ratio does the source give for CGGTGGGGTA here?
Answer: 1.01 ± 0.033

Question: CGTGAAAGCT was tested. Which switch fluorescence ratio did it give?
Answer: 1.18 ± 0.037

Question: For AATTTCGCAA, which switch fluorescence ratio is on record?
Answer: 3.4 ± 1.3

Question: With TTTAGCTGCC as the sequence, how does the switch fluorescence ratio read?
Answer: 1.16 ± 0.064

Question: GTGTTTGGCG was tested. Which switch fluorescence ratio did it give?
Answer: 0.9981 ± 0.0051

Question: Which switch fluorescence ratio does the source give for GGGGGTTTTT here?
Answer: 0.997 ± 0.033

Question: TTTGTTAGGG was tested. Which switch fluorescence ratio did it give?
Answer: 0.994 ± 0.022

Question: With TCAGTTTTTT as the sequence, how does the switch fluorescence ratio read?
Answer: 0.999 ± 0.035

Question: Which switch fluorescence ratio does the source give for GGCAGCTTTT here?
Answer: 1.05 ± 0.088

Question: With CCTGGGGGC as the sequence, how does the switch fluorescence ratio read?
Answer: 1.1 ± 0.056

Question: With TTTATGGGTG as the sequence, how does the switch fluorescence ratio read?
Answer: 1.01 ± 0.016

Question: Which switch fluorescence ratio does the source give for TTTGGGATTG here?
Answer: 1.07 ± 0.015

Question: With CCTTGTAGGT as the sequence, how does the switch fluorescence ratio read?
Answer: 1.02 ± 0.038

Question: Which switch fluorescence ratio does the source give for GGGGCAGAGG here?
Answer: 0.997 ± 0.043

Question: With CCAGGACGTA as the sequence, how does the switch fluorescence ratio read?
Answer: 1.02 ± 0.027

Question: With GCGTGGTCAG as the sequence, how does the switch fluorescence ratio read?
Answer: 0.97027 ± 0.00034

Question: How did the switch fluorescence ratio turn out when CAAGATTCGG was run?
Answer: 0.986 ± 0.018

Question: How did the switch fluorescence ratio turn out when ATGCGCGGTA was run?
Answer: 1.01 ± 0.068

Question: GGGAAACGGT was tested. Which switch fluorescence ratio did it give?
Answer: 1.03 ± 0.011

Question: How did the switch fluorescence ratio turn out when AAGGAGTTGT was run?
Answer: 0.951 ± 0.05

Question: Which switch fluorescence ratio does the source give for TGGTGTTGGG here?
Answer: 0.983 ± 0.015

Question: GGTGATGTGT was tested. Which switch fluorescence ratio did it give?
Answer: 1.004 ± 0.0075

Question: With TTTCGCCATA as the sequence, how does the switch fluorescence ratio read?
Answer: 2.39 ± 2

Question: TATGGGCACG was tested. Which switch fluorescence ratio did it give?
Answer: 0.99 ± 0.024

Question: How did the switch fluorescence ratio turn out when TTTGATTTGC was run?
Answer: 0.961 ± 0.042

Question: With TTCGGGTCGG as the sequence, how does the switch fluorescence ratio read?
Answer: 0.991 ± 0.026

Question: Which switch fluorescence ratio does the source give for TGAGCCTTAG here?
Answer: 1.09 ± 0.05

Question: How did the switch fluorescence ratio turn out when AGTGGTTATT was run?
Answer: 0.989 ± 0.032

Question: TACTACGTGC was tested. Which switch fluorescence ratio did it give?
Answer: 1.28 ± 0.019

Question: TAAGTGGAAA was tested. Which switch fluorescence ratio did it give?
Answer: 0.992 ± 0.05

Question: Which switch fluorescence ratio does the source give for AAGGGGTTCT here?
Answer: 1.01 ± 0.016

Question: How did the switch fluorescence ratio turn out when GGGGTACGGT was run?
Answer: 1 ± 0.018

Question: TTGTTTGAAA was tested. Which switch fluorescence ratio did it give?
Answer: 1 ± 0.064

Question: For TTTTATGCGA, which switch fluorescence ratio is on record?
Answer: 1.01 ± 0.02

Question: With GTTTGAAAGT as the sequence, how does the switch fluorescence ratio read?
Answer: 0.957 ± 0.01

Question: Which switch fluorescence ratio does the source give for GAGTTCGAGG here?
Answer: 1.02 ± 0.037

Question: TCGGTTGTCT was tested. Which switch fluorescence ratio did it give?
Answer: 1.02 ± 0.052

Question: How did the switch fluorescence ratio turn out when GTTGGATTTA was run?
Answer: 1.006 ± 0.0077

Question: Which switch fluorescence ratio does the source give for GATTTCTCGT here?
Answer: 0.9551 ± 0.0021

Question: With TCATTTGGGG as the sequence, how does the switch fluorescence ratio read?
Answer: 0.975 ± 0.024

Question: For GGGTGGGGGG, which switch fluorescence ratio is on record?
Answer: 1.01 ± 0.037

Question: How did the switch fluorescence ratio turn out when TTGTTGGTTG was run?
Answer: 0.975 ± 0.034

Question: ATATGAGTTT was tested. Which switch fluorescence ratio did it give?
Answer: 1.01 ± 0.017

Question: How did the switch fluorescence ratio turn out when TCGCGGGAAG was run?
Answer: 1.015 ± 0.0054

Question: With TAACGAACGC as the sequence, how does the switch fluorescence ratio read?
Answer: 1.65 ± 0.086

Question: Which switch fluorescence ratio does the source give for ATGATTTATT here?
Answer: 1 ± 0.011

Question: For TGTTGCAGTT, which switch fluorescence ratio is on record?
Answer: 1.03 ± 0.02

Question: How did the switch fluorescence ratio turn out when ACCCAGAGCG was run?
Answer: 1.14 ± 0.023

Question: How did the switch fluorescence ratio turn out when ACGGGCTGGG was run?
Answer: 1.1 ± 0.02

Question: How did the switch fluorescence ratio turn out when TCAGAGTGCT was run?
Answer: 1.03 ± 0.025

Question: Which switch fluorescence ratio does the source give for GGCGGGAGGA here?
Answer: 1.02 ± 0.025

Question: AGCTTATGTC was tested. Which switch fluorescence ratio did it give?
Answer: 0.935 ± 0.057

Question: Which switch fluorescence ratio does the source give for GTGGTTTGGG here?
Answer: 0.988 ± 0.06

Question: Which switch fluorescence ratio does the source give for GGTTTGGCTG here?
Answer: 0.993 ± 0.038

Question: How did the switch fluorescence ratio turn out when TTTGGAAGCC was run?
Answer: 1 ± 0.041

Question: TTGGCTTTTT was tested. Which switch fluorescence ratio did it give?
Answer: 1.01 ± 0.015

Question: How did the switch fluorescence ratio turn out when TGTATTAAGG was run?
Answer: 1.01 ± 0.036

Question: GGCGTCAGGA was tested. Which switch fluorescence ratio did it give?
Answer: 1.01 ± 0.027

Question: How did the switch fluorescence ratio turn out when GCAGGTTTGG was run?
Answer: 0.991 ± 0.033

Question: TTCAAAATCT was tested. Which switch fluorescence ratio did it give?
Answer: 1.04 ± 0.019

Question: Which switch fluorescence ratio does the source give for AATGTAAACG here?
Answer: 0.978 ± 0.027

Question: For CCAATGCAGC, which switch fluorescence ratio is on record?
Answer: 3.22 ± 0.27

Question: Which switch fluorescence ratio does the source give for TCGGAAGGGC here?
Answer: 1.017 ± 0.0027

Question: Which switch fluorescence ratio does the source give for AAACTAGCTG here?
Answer: 1 ± 0.025

Question: For TTATGTATAT, which switch fluorescence ratio is on record?
Answer: 1.007 ± 0.0069

Question: GAGGTATGGG was tested. Which switch fluorescence ratio did it give?
Answer: 0.9761 ± 0.0077

Question: CAGGGTGGTA was tested. Which switch fluorescence ratio did it give?
Answer: 0.9934 ± 0.0048

Question: Which switch fluorescence ratio does the source give for GGAAAAAAGT here?
Answer: 1.02 ± 0.047

Question: How did the switch fluorescence ratio turn out when GTGTTAGACT was run?
Answer: 0.9618 ± 0.0092

Question: With CGGGGTGTGC as the sequence, how does the switch fluorescence ratio read?
Answer: 1.01 ± 0.031

Question: For AAAAGGGTCT, which switch fluorescence ratio is on record?
Answer: 1.02 ± 0.024

Question: How did the switch fluorescence ratio turn out when TTTTGCTGTA was run?
Answer: 1.04 ± 0.099

Question: How did the switch fluorescence ratio turn out when CAATACAGGG was run?
Answer: 1.04 ± 0.042

Question: For TCTTGGGGAG, which switch fluorescence ratio is on record?
Answer: 0.9815 ± 0.0083

Question: Which switch fluorescence ratio does the source give for TGGCTGTGGG here?
Answer: 0.991 ± 0.016

Question: TTTGCGGTCA was tested. Which switch fluorescence ratio did it give?
Answer: 1.021 ± 0.0091

Question: How did the switch fluorescence ratio turn out when CGCGGGGCGG was run?
Answer: 1.02 ± 0.029

Question: With TTTGACGGTA as the sequence, how does the switch fluorescence ratio read?
Answer: 1.09 ± 0.016

Question: Which switch fluorescence ratio does the source give for ATATTCGCGG here?
Answer: 1.01 ± 0.015

Question: How did the switch fluorescence ratio turn out when GGTTTTGCAG was run?
Answer: 0.9946 ± 0.0069

Question: With GTGGGAGTTT as the sequence, how does the switch fluorescence ratio read?
Answer: 1.01 ± 0.043

Question: Which switch fluorescence ratio does the source give for AGTTATTGCC here?
Answer: 1.01 ± 0.029

Question: With AGGGGTAAAA as the sequence, how does the switch fluorescence ratio read?
Answer: 1 ± 0.014
